Assay results reported in patent publication US9845340B2, “Peptides that specifically bind HGF receptor (cMet) and uses thereof” (Dyax Corp., priority 2003, dated 2017).

Legend:
cMet-Fc fusion protein [1] = target: T1, cMet-Fc fusion protein (Homo sapiens, UniProt P08581); assay: Protein phage ELISA: peptide-displaying phage binding to soluble cMet-Fc versus TRAIL-Fc; settings: phage isolate; cMet-Fc vs. TRAIL-Fc
Summary of the method: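 Plates coated with 0.5 μg/mL cMet-Fc or, as background, TRAIL-Fc, then blocked with 3% BSA in PBST. Peptide-displaying phage bound 2 h at room temperature. Detection with HRP-anti-M13 antibody.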

[2] = target: T2, 3T3 cells that over-express human cMet (Homo sapiens, UniProt P08581); assay: Whole cell ELISA of peptide-displaying phage; type: cell-based; settings: phage isolate; 3T3 cells expressing human cMet vs. non-expressing 3T3 cells
T2 construct: expressed in transfected cells; host or cells: 3T3 cells
Summary of the method: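 3T3 cells over-expressing human cMet seeded 10^5/well, pelleted and fixed with 0.1% glutaraldehyde 12 min at 37 °C. Blocked peptide-displaying phage bound 1 h at room temperature; after PBST wash, bound phage detected with HRP-conjugated anti-M13 antibody.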

[3] = target: T3, cMet-Fc fusion protein (or similar target) (Mus musculus, UniProt P16056); assay: Fluorescence anisotropy / polarization direct binding, mouse cMet; design: key: NB = no binding; settings: fluorescein-labeled peptide
T3 construct: Fc
Method: Fluorescence anisotropy measurements were performed in 384-well microplates in a volume of 10 μL in binding buffer (PBS, 0.01% Tween-20, pH 7.5) using a Tecan Polarion fluorescence polarization plate reader ([…]). The concentration of fluorescein-labeled peptide was held constant (20 nM) and the concentration of cMet-Fc fusion protein (or similar target) was varied. Binding mixtures were equilibrated for 10 minutes in the microplate at 30 C before measurement. The observed change in anisotropy was fit to the equation below via nonlinear regression to obtain the apparent KD. This equation (1) assumes that the synthetic peptide and cMet form a reversible complex in solution with 1:1 stoichiometry.
[formula] where robs is the observed anisotropy, rfree is the anisotropy of the free peptide, rbound is the anisotropy of the bound peptide, KD is the apparent dissociation constant, cMet is the total cMet concentration, and P is the total fluorescein-labeled peptide concentration. KD was calculated in a direct binding assay (KD,B) and therefore these values represent cMet binding to the fluorescein labeled peptide.

cMet-Fc fusion protein [4] = target: T1, cMet-Fc fusion protein; assay: HGF competition protein ELISA; settings: % of binding in the absence of HGF
Method: This competition ELISA identifies peptides that serve as “HGF antagonistic peptides”, peptides that block HGF-mediated signaling events (e.g., proliferation). These assays were conducted using the peptide-displaying phage discovered from the initial selection and screening campaigns using the first generation peptide libraries. Briefly, 96-well plates were coated overnight at 4 C with 0.5 μg/mL of cMet-Fc fusion protein or TRAIL-Fc fusion protein (background). The plates were blocked for 2 hours at 37 C with 3% BSA in PBST. The plates were washed with PBST, and 100 μL of HGF (either at 100 ng/mL or 500 ng/mL in PBST) was added to each well. The plates were incubated for 30 minutes at room temperature after which the plates were washed with PBST and 70 μL of HGF (143 ng/mL or 714 ng/mL) or 70 μL of PBST was added to the respective wells. This was followed by an addition of 30 μL of peptide-displaying phage overnight culture to each well. The plates were incubated for 2 hours at room temperature, washed with PBST and cMet-binding peptide-displaying phage was detected using an HRP-conjugated anti-M13 antibody.

SK-LMS-1 cells = assay: Cellular proliferation assay (HGF-stimulated, BrdU incorporation); type: cell-based; settings: peptide 10 μM, HGF 50 ng/mL or 100 ng/mL, FIG. 10
Method: Cellular proliferation assays were performed to identify cMet-binding peptides that antagonize HGF-stimulated proliferation. These in vitro studies utilized a leomyosarcoma cell line, SK-LMS-1, in which cells proliferate in response to HGF. SK-LMS-1 cells were seeded on 96-well plates at a density of 2000 cells/well. After a 24 hour incubation at 37 C, the cells were starved in culture media containing 0.1% BSA instead of 10% fetal bovine serum for 36 hours at 37 C. Fresh starvation media with or without a cMet-binding peptide (10 μM) was added to the respective wells and the cells were incubated for 2 hours at 37 C. […] HGF was then added at a concentration of either 50 ng/mL or 100 ng/mL and the cells were incubated for an additional 12 hours at 37 C. Proliferation was assessed by measuring the incorporation of BrdU (Calbiochem, San Diego, Calif.) as described by the manufacturer. Results are shown for SEQ ID NO:365 (FIG. 10).

T2 sequence (P08581 25-1390): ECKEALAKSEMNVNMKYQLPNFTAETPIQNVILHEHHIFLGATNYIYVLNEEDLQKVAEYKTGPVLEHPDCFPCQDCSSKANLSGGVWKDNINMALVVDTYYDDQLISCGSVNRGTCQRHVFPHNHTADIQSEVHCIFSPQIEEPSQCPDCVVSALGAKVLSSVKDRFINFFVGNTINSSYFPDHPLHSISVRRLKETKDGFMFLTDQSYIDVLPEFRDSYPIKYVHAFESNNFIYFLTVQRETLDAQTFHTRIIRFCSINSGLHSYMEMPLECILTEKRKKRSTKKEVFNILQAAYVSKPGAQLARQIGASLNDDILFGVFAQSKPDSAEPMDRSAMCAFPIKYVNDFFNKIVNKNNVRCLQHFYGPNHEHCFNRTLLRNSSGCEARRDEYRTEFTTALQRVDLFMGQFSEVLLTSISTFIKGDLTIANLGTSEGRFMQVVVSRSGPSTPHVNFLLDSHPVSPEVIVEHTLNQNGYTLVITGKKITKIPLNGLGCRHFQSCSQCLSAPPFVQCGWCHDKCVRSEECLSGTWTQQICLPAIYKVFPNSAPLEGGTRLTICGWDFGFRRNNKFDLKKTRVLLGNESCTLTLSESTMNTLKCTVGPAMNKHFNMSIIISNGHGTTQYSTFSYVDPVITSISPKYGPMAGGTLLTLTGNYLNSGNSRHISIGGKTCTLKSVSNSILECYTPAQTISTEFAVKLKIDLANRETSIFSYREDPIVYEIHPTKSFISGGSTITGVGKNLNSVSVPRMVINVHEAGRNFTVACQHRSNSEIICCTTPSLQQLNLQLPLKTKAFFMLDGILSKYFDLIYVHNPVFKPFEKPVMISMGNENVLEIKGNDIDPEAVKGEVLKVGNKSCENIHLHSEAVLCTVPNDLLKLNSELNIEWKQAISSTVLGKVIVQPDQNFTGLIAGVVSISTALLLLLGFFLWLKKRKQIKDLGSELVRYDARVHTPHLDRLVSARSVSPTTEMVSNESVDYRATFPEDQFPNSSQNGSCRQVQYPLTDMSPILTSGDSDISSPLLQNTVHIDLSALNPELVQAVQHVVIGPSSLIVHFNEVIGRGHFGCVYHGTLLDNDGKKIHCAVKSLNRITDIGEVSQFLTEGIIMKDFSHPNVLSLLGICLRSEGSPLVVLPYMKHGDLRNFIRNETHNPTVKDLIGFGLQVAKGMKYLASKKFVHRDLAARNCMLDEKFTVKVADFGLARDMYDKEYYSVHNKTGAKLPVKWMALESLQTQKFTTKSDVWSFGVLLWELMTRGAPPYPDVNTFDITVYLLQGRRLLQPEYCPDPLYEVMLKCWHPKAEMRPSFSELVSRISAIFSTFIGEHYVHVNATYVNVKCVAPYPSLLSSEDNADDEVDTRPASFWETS
T3 sequence (P16056 25-306 limits assumed): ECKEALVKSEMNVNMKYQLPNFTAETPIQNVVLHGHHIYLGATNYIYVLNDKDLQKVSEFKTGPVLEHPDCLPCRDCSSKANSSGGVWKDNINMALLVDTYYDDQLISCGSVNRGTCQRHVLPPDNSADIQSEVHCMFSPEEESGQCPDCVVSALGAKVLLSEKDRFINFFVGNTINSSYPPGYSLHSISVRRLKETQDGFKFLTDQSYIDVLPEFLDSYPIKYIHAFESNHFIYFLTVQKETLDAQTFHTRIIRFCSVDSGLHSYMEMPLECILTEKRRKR
T3 sequence (P16056 307-929 limits assumed): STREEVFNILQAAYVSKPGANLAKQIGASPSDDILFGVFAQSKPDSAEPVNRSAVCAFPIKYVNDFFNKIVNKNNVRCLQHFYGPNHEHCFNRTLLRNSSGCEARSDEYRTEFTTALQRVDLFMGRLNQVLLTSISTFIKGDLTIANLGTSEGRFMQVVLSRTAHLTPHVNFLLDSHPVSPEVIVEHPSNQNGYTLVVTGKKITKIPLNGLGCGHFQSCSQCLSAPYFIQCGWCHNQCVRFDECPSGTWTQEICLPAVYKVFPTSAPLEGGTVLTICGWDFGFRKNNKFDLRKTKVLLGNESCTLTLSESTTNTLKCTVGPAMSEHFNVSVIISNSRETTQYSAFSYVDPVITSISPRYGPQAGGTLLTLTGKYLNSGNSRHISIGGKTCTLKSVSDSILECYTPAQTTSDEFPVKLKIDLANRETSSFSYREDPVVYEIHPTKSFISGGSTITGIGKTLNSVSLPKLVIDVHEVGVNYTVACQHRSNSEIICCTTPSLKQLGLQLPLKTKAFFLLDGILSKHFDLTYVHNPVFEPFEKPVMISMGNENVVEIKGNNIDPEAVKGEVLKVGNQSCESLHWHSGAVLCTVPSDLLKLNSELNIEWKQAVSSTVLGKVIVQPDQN
T1 sequence (P08581 25-307 limits assumed): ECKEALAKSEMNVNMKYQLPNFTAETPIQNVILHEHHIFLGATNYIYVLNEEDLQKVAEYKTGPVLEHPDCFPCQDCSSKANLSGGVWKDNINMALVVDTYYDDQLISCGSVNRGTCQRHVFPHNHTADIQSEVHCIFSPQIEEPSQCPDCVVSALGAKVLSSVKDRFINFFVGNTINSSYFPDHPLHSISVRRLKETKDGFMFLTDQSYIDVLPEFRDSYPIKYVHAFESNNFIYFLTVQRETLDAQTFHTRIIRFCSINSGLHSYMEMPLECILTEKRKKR
T1 sequence (P08581 with tags, fused parts or gaps limits assumed): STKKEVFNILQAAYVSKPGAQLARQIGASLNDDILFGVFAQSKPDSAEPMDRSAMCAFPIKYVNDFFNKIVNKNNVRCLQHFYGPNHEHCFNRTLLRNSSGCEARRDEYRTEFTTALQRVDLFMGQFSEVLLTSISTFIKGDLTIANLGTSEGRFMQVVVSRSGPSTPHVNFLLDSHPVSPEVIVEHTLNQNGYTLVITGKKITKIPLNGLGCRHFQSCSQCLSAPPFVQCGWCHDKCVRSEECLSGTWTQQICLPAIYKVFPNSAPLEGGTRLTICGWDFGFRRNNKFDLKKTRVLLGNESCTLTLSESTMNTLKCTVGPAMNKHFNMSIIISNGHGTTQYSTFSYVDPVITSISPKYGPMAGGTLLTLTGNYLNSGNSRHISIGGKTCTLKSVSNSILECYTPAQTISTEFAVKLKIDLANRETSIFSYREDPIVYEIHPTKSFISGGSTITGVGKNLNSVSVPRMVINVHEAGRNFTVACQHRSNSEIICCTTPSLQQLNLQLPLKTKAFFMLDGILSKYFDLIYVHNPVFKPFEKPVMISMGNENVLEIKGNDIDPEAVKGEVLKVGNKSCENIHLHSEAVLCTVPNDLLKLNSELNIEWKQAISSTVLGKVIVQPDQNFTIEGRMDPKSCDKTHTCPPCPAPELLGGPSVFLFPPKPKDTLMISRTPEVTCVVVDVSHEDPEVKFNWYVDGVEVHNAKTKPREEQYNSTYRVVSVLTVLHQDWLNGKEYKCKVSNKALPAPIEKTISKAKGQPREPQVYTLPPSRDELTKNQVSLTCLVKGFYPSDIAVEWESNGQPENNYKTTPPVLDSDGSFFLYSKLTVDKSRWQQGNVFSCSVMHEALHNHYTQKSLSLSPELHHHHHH

CC(=O)NCC(=O)N[C@@H](CC(=O)O)C(=O)N[C@@H](Cc1ccc(O)cc1)C(=O)N[C@@H](CO)C(=O)N[C@@H](CCC(=O)O)C(=O)N[C@H]1CSSC[C@@H](C(=O)N[C@@H](Cc2ccc(O)cc2)C(=O)N[C@@H](CC(=O)O)C(=O)N[C@@H](CCCNC(=N)N)C(=O)N[C@@H](CC(=O)O)C(=O)N2CCC[C@H]2C(=O)NCC(=O)NCC(=O)NCC(=O)N[C@@H](CCCCNC(=O)c2ccc3c(c2)C(=O)OC32c3ccc(O)cc3Oc3cc(O)ccc32)C(N)=O)NC(=O)[C@H](CCCCN)NC(=O)[C@H](C(C)C)NC(=O)[C@H](CCC(=O)O)NC(=O)[C@H](Cc2ccccc2)NC(=O)[C@H](CO)NC(=O)[C@H](CC(=O)O)NC(=O)[C@@H]2CCCN2C(=O)[C@H](CCC(=O)O)NC(=O)[C@H](Cc2ccccc2)NC(=O)[C@H](Cc2ccccc2)NC1=O [SEQ ID NO: 399]
Protein ELISA (cMet-Fc fusion protein [1]): 11.3 fold over background | WC ELISA [2]: 1.30 fold over background | Kd (mouse) [3]: NB

GSILYCINRNDPQCPYTAP (Synthetically generated cMet-binding peptide sequence) [SEQ ID NO: 101]
Protein ELISA (cMet-Fc fusion protein [1]): 3.0 fold over background | WC ELISA [2]: 1.27 fold over background | HGF 100 ng/mL (cMet-Fc fusion protein [4]): 9S%

CC[C@H](C)[C@@H]1NC(=O)[C@H](CCCNC(=N)N)NC(=O)[C@H](Cc2c[nH]c3ccccc23)NC(=O)[C@@H](NC(=O)[C@@H]2CCCN2C(=O)[C@H](Cc2ccccc2)NC(=O)[C@H](Cc2ccccc2)NC(=O)[C@H](CO)NC(=O)CNC(C)=O)CSSC[C@@H](C(=O)N[C@@H](Cc2c[nH]cn2)C(=O)N[C@@H](C)C(=O)N[C@@H](CC(N)=O)C(=O)N[C@@H](C)C(=O)N2CCC[C@H]2C(=O)NCC(=O)NCC(=O)NCC(=O)N[C@@H](CCCCNC(=O)c2ccc3c(c2)C(=O)OC32c3ccc(O)cc3Oc3cc(O)ccc32)C(N)=O)NC(=O)[C@H](Cc2ccc(O)cc2)NC(=O)CNC(=O)[C@H](Cc2ccccc2)NC(=O)[C@H](CCCNC(=N)N)NC(=O)[C@H](CC(=O)O)NC1=O [SEQ ID NO: 370]
Protein ELISA (cMet-Fc fusion protein [1]): 13.3 fold over background | WC ELISA [2]: 1.87 fold over background | Kd (mouse) [3]: NB

AGWYNCSGENFWNCKWIGT (Synthetically generated cMet-binding peptide sequence) [SEQ ID NO: 082]
Protein ELISA (cMet-Fc fusion protein [1]): 14.3 fold over background | WC ELISA [2]: 1.43 fold over background | HGF 100 ng/mL (cMet-Fc fusion protein [4]): 61% | HGF 500 ng/mL (cMet-Fc fusion protein [4]; HGF 500 ng/mL): 79%

CSCC[C@@H]1NC(=O)[C@@H](NC(=O)[C@H](CCSC)NC(=O)[C@H](CCC(=O)O)NC(=O)[C@@H]2CCCN2C(=O)[C@H](CO)NC(=O)CNC(C)=O)CSSC[C@@H](C(=O)N[C@@H](CC(N)=O)C(=O)N[C@@H](Cc2c[nH]cn2)C(=O)N[C@@H](Cc2c[nH]cn2)C(=O)N[C@@H](C)C(=O)N2CCC[C@H]2C(=O)NCC(=O)NCC(=O)NCC(=O)N[C@@H](CCCCNC(=O)c2ccc3c(c2)C(=O)OC32c3ccc(O)cc3Oc3cc(O)ccc32)C(N)=O)NC(=O)[C@@H]2CCCN2C(=O)[C@H](Cc2ccc(O)cc2)NC(=O)[C@H](CC(C)C)NC(=O)[C@H](Cc2ccccc2)NC(=O)[C@@H]2CCCN2C(=O)[C@H](Cc2ccccc2)NC(=O)[C@H](CCSC)NC1=O [SEQ ID NO: 369]
Kd (mouse) [3]: NB

GSWRFCGGEYSFQVCQDVAP (Synthetically generated cMet-binding peptide sequence) [SEQ ID NO: 365]
Protein ELISA (cMet-Fc fusion protein [1]): 26.3 fold over background | WC ELISA [2]: 1.33 fold over background | growth inhibitory properties (HGF-stimulated proliferation) (SK-LMS-1 cells): growth inhibitory properties

CC(=O)N[C@@H](C)C(=O)NCC(=O)N[C@@H](CCC(=O)O)C(=O)N[C@@H](Cc1c[nH]c2ccccc12)C(=O)N[C@@H](Cc1c[nH]c2ccccc12)C(=O)N[C@H]1CSSC[C@@H](C(=O)N[C@@H](Cc2ccc(O)cc2)C(=O)N[C@@H](Cc2c[nH]c3ccccc23)C(=O)N[C@H](C(=O)NCC(=O)N[C@H](C(=O)NCC(=O)NCC(=O)NCC(=O)N[C@@H](CCCCNC(=O)c2ccc3c(c2)C(=O)OC32c3ccc(O)cc3Oc3cc(O)ccc32)C(N)=O)[C@@H](C)O)[C@@H](C)O)NC(=O)[C@H](CC(C)C)NC(=O)[C@H](Cc2ccccc2)NC(=O)[C@H](CCC(=O)O)NC(=O)[C@@H]2CCCN2C(=O)[C@@H]2CCCN2C(=O)CNC(=O)[C@H](Cc2c[nH]cn2)NC1=O [SEQ ID NO: 072]
Protein ELISA (cMet-Fc fusion protein [1]): 12.6 fold over background | WC ELISA [2]: 1.47 fold over background

AQWNWDMGFMWTTDSAQVQPSM (Synthetically generated cMet-binding peptide sequence) [SEQ ID NO: 489]
Protein ELISA (cMet-Fc fusion protein [1]): 3.0 fold over background | WC ELISA [2]: 1.37 fold over background

AGQFYCSGPPTFQCIMIGT (Synthetically generated cMet-binding peptide sequence) [SEQ ID NO: 089]
Protein ELISA (cMet-Fc fusion protein [1]): 12.4 fold over background | WC ELISA [2]: 1.23 fold over background

CC(=O)N[C@@H](C)C(=O)NCC(=O)N[C@@H](CO)C(=O)N[C@@H](Cc1c[nH]c2ccccc12)C(=O)N[C@@H](Cc1c[nH]cn1)C(=O)N[C@H]1CSSC[C@@H](C(=O)N[C@@H](Cc2c[nH]c3ccccc23)C(=O)N[C@@H](CCC(=O)O)C(=O)N[C@@H](Cc2ccccc2)C(=O)NCC(=O)N[C@H](C(=O)NCC(=O)NCC(=O)NCC(=O)N[C@@H](CCCCNC(=O)c2ccc3c(c2)C(=O)OC32c3ccc(O)cc3Oc3cc(O)ccc32)C(N)=O)[C@@H](C)O)NC(=O)[C@H](CCC(=O)O)NC(=O)[C@H](Cc2ccccc2)NC(=O)[C@H](CO)NC(=O)[C@@H]2CCCN2C(=O)[C@@H]2CCCN2C(=O)CNC(=O)[C@H](C)NC1=O [SEQ ID NO: 055]
Protein ELISA (cMet-Fc fusion protein [1]): 18.3 fold over background | WC ELISA [2]: 1.47 fold over background

GSSHCNQMITPWQNCGMRAP (Synthetically generated cMet-binding peptide sequence) [SEQ ID NO: 374]
Protein ELISA (cMet-Fc fusion protein [1]): 3.3 fold over background | WC ELISA [2]: 1.37 fold over background

GSFTACNKTSTTRQPCNPYAP (Synthetically generated cMet-binding peptide sequence) [SEQ ID NO: 384]
Protein ELISA (cMet-Fc fusion protein [1]): 3.1 fold over background | WC ELISA [2]: 1.37 fold over background

AGEIFCVGPPTFTCMWTGT (Synthetically generated cMet-binding peptide sequence) [SEQ ID NO: 096]
Protein ELISA (cMet-Fc fusion protein [1]): 9.7 fold over background | WC ELISA [2]: 1.27 fold over background

AGQAVCEWGPFWCQMQGT (Synthetically generated cMet-binding peptide sequence) [SEQ ID NO: 031]
Protein ELISA (cMet-Fc fusion protein [1]): 3.2 fold over background | WC ELISA [2]: 1.30 fold over background

GDLLGCGYQEKGGEYKCRFNDP (Synthetically generated cMet-binding peptide sequence) [SEQ ID NO: 395]
Protein ELISA (cMet-Fc fusion protein [1]): 13.5 fold over background | WC ELISA [2]: 1.40 fold over background
